Experimental data taken from IntAct's records for PubMed 31515488.

B1: Phosphatidylserine lipase ABHD16A (Homo sapiens), O95870 (parent)
chain: MAKLLSCVLGPRLYKIYRERDSERAPASVPETPTAVTAPHSSSWDTYYQPRALEKHADSILALASVFWSISYYSSPFAFFYLYRKGYLSLSKVVPFSHYAGTLLLLLAGVACLRGIGRWTNPQYRQFITILEATHRNQSSENKRQLANYNFDFRSWPVDFHWEEPSSRKESRGGPSRRGVALLRPEPLHRGTADTLLNRVKKLPCQITSYLVAHTLGRRMLYPGSVYLLQKALMPVLLQGQARLVEECNGRRAKLLACDGNEIDTMFVDRRGTAEPQGQKLVICCEGNAGFYEVGCVSTPLEAGYSVLGWNHPGFAGSTGVPFPQNEANAMDVVVQFAIHRLGFQPQDIIIYAWSIGGFTATWAAMSYPDVSAMILDASFDDLVPLALKVMPDSWRGLVTRTVRQHLNLNNAEQLCRYQGPVLLIRRTKDEIITTTVPEDIMSNRGNDLLLKLLQHRYPRVMAEEGLRVVRQWLEASSQLEEASIYSRWEVEEDWCLSVLRSYQAEHGPDFPWSVGEDMSADGRRQLALFLARKHLHNFEATHCTPLPAQNFQMPWHL
B2: KAT8 regulatory NSL complex subunit 1 (Homo sapiens), Q7Z3B3 (parent)
chain: MAAMAPALTDAAAEAHHIRFKLAPPSSTLSPGSAENNGNANILIAANGTKRKAIAAEDPSLDFRNNPTKEDLGKLQPLVASYLCSDVTSVPSKESLKLQGVFSKQTVLKSHPLLSQSYELRAELLGRQPVLEFSLENLRTMNTSGQTALPQAPVNGLAKKLTKSSTHSDHDNSTSLNGGKRALTSSALHGGEMGGSESGDLKGGMTNCTLPHRSLDVEHTTLYSNNSTANKSSVNSMEQPALQGSSRLSPGTDSSSNLGGVKLEGKKSPLSSILFSALDSDTRITALLRRQADIESRARRLQKRLQVVQAKQVERHIQHQLGGFLEKTLSKLPNLESLRPRSQLMLTRKAEAALRKAASETTTSEGLSNFLKSNSISEELERFTASGIANLRCSEQAFDSDVTDSSSGGESDIEEEELTRADPEQRHVPLRRRSEWKWAADRAAIVSRWNWLQAHVSDLEYRIRQQTDIYKQIRANKGLIVLGEVPPPEHTTDLFLPLSSEVKTDHGTDKLIESVSQPLENHGAPIIGHISESLSTKSCGALRPVNGVINTLQPVLADHIPGDSSDAEEQLHKKQRLNLVSSSSDGTCVAARTRPVLSCKKRRLVRPNSIVPLSKKVHRNSTIRPGCDVNPSCALCGSGSINTMPPEIHYEAPLLERLSQLDSCVHPVLAFPDDVPTSLHFQSMLKSQWQNKPFDKIKPPKKLSLKHRAPMPGSLPDSARKDRHKLVSSFLTTAKLSHHQTRPDRTHRQHLDDVGAVPMVERVTAPKAERLLNPPPPVHDPNHSKMRLRDHSSERSEVLKHHTDMSSSSYLAATHHPPHSPLVRQLSTSSDSPAPASSSSQVTASTSQQPVRRRRGESSFDINNIVIPMSVAATTRVEKLQYKEILTPSWREVDLQSLKGSPDEENEEIEDLSDAAFAALHAKCEEMERARWLWTTSVPPQRRGSRSYRSSDGRTTPQLGSANPSTPQPASPDVSSSHSLSEYSHGQSPRSPISPELHSAPLTPVARDTPRHLASEDTRCSTPELGLDEQSVQPWERRTFPLAHSPQAECEDQLDAQERAARCTRRTSGSKTGRETEAAPTSPPIVPLKSRHLVAAATAQRPTHR
partner: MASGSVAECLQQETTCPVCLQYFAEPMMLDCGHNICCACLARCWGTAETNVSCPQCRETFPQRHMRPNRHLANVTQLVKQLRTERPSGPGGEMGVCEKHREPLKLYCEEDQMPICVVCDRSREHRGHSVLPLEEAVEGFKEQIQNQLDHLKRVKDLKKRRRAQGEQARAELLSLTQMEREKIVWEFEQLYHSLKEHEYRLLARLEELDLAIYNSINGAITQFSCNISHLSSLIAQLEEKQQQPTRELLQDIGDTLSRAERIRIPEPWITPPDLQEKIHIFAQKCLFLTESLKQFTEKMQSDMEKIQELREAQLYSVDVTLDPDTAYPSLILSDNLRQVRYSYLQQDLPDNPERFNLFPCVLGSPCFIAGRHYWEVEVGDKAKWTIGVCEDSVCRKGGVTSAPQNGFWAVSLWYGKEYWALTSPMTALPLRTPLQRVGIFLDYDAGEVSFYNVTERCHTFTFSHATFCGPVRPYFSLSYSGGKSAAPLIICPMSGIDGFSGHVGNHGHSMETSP
B3: TBC1 domain family member 5 (Homo sapiens), Q92609 (parent)
chain: MYHSLSETRHPLQPEEQEVGIDPLSSYSNKSGGDSNKNGRRTSSTLDSEGTFNSYRKEWEELFVNNNYLATIRQKGINGQLRSSRFRSICWKLFLCVLPQDKSQWISRIEELRAWYSNIKEIHITNPRKVVGQQDLMINNPLSQDEGSLWNKFFQDKELRSMIEQDVKRTFPEMQFFQQENVRKILTDVLFCYARENEQLLYKQGMHELLAPIVFVLHCDHQAFLHASESAQPSEEMKTVLNPEYLEHDAYAVFSQLMETAEPWFSTFEHDGQKGKETLMTPIPFARPQDLGPTIAIVTKVNQIQDHLLKKHDIELYMHLNRLEIAPQIYGLRWVRLLFGREFPLQDLLVVWDALFADGLSLGLVDYIFVAMLLYIRDALISSNYQTCLGLLMHYPFIGDVHSLILKALFLRDPKRNPRPVTYQFHPNLDYYKARGADLMNKSRTNAKGAPLNINKVSNSLINFGRKLISPAMAPGSAGGPVPGGNSSSSSSVVIPTRTSAEAPSHHLQQQQQQQRLMKSESMPVQLNKGLSSKNISSSPSVESLPGGREFTGSPPSSATKKDSFFSNISRSRSHSKTMGRKESEEELEAQISFLQGQLNDLDAMCKYCAKVMDTHLVNIQDVILQENLEKEDQILVSLAGLKQIKDILKGSLRFNQSQLEAEENEQITIADNHYCSSGQGQGRGQGQSVQMSGAIKQASSETPGCTDRGNSDDFILISKDDDGSSARGSFSGQAQPLRTLRSTSGKSQAPVCSPLVFSDPLMGPASASSSNPSSSPDDDSSKDSGFTIVSPLDI
B4: Retinoic acid receptor beta (Homo sapiens), P10826-2 (parent)
chain: MFDCMDVLSVSPGQILDFYTASPSSCMLQEKALKACFSGLTQTEWQHRHTAQSIETQSTSSEELVPSPPSPLPPPRVYKPCFVCQDKSSGYHYGVSACEGCKGFFRRSIQKNMIYTCHRDKNCVINKVTRNRCQYCRLQKCFEVGMSKESVRNDRNKKKKETSKQECTESYEMTAELDDLTEKIRKAHQETFPSLCQLGKYTTNSSADHRVRLDLGLWDKFSELATKCIIKIVEFAKRLPGFTGLTIADQITLLKAACLDILILRICTRYTPEQDTMTFSDGLTLNRTQMHNAGFGPLTDLVFTFANQLLPLEMDDTETGLLSAICLICGDRQDLEEPTKVDKLQEPLLEALKIYIRKRRPSKPHMFPKILMKITDLRSISAKGAERVITLKMEIPGSMPPLIQEMLENSEGHEPLTPSSSGNTAEHSPSISPSSVENSGVSQSPLVQ
partner: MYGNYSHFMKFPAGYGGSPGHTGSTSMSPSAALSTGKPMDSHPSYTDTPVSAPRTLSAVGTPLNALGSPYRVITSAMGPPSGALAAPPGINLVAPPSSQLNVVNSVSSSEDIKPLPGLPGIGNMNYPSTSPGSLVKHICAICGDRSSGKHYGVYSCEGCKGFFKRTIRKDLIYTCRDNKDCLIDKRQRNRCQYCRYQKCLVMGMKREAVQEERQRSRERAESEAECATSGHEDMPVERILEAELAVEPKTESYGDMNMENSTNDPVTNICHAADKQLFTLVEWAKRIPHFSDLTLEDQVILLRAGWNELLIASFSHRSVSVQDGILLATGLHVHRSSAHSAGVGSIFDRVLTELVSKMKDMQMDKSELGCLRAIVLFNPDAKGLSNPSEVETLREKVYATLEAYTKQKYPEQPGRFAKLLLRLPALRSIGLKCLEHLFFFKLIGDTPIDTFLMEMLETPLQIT
B5: Centrin-1 (Homo sapiens), Q12798 (parent)
chain: MASGFKKPSAASTGQKRKVAPKPELTEDQKQEVREAFDLFDVDGSGTIDAKELKVAMRALGFEPRKEEMKKMISEVDREGTGKISFNDFLAVMTQKMSEKDTKEEILKAFRLFDDDETGKISFKNLKRVANELGENLTDEELQEMIDEADRDGDGEVNEEEFLRIMKKTSLY
partner: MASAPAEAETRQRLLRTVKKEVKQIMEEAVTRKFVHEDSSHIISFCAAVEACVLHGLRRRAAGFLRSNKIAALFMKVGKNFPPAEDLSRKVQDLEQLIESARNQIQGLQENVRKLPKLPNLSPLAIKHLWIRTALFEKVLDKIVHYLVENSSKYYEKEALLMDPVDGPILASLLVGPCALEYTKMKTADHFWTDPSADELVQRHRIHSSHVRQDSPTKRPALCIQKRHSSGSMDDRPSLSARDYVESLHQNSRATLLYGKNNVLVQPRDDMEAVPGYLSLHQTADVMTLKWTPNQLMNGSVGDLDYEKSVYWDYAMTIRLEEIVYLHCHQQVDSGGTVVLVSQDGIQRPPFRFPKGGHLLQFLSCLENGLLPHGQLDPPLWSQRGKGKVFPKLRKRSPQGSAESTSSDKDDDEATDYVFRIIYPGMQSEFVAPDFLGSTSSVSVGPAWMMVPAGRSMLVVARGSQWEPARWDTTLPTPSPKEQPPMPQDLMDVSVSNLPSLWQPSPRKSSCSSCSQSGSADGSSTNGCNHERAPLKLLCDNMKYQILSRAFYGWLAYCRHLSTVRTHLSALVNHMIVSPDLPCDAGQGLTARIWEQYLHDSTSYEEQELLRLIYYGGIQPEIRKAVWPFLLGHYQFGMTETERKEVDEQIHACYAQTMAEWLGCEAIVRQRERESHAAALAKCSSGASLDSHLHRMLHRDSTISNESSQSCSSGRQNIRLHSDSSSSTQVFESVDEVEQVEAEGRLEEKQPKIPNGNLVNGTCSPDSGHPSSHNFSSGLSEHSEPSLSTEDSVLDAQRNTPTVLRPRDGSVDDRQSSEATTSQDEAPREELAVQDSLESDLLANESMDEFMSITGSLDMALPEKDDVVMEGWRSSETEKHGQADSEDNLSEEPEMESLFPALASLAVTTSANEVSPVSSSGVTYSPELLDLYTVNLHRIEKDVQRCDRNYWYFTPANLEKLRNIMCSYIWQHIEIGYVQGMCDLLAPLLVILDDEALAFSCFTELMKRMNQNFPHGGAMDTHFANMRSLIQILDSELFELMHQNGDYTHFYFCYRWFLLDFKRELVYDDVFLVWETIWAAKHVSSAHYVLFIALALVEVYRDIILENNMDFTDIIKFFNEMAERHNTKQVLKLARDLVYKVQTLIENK

Variants of: B1
Details: with dtx2_human DTX2, Q86UW9
dtx2_human DTX2, Q86UW9, sequence (Q86UW9 whole entry): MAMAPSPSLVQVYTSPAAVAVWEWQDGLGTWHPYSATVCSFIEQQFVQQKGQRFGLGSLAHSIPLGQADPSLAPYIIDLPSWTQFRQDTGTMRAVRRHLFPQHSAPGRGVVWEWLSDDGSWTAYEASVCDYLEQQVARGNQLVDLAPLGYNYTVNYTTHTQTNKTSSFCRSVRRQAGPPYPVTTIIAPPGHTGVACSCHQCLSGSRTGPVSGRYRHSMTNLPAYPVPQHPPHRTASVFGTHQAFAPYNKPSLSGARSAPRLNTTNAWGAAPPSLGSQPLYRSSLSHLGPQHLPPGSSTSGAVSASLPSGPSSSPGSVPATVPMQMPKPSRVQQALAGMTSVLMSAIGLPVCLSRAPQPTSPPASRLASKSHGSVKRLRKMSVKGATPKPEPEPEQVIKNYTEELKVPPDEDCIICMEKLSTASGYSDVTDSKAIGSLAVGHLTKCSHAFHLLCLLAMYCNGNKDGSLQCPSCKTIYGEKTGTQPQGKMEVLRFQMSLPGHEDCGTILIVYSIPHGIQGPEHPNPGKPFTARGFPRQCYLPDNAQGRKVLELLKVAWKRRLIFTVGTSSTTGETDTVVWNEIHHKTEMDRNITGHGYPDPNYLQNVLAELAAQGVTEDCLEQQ

How did the “effect of a mutation on the interaction” value turn out when R184L was run?
Its value is “with no effect”.

Variants of: B2
Details: with tri27_human TRIM27, P14373

How did the “effect of a mutation on the interaction” value turn out when K104T was run?
Its value is “with no effect”.

N225D was tested. Which “effect of a mutation on the interaction” value did it give?
Its value is “with no effect”.

Variants of: B3
Details: with ap2m1_human AP2M1, Q96CW1
ap2m1_human AP2M1, Q96CW1, sequence (Q96CW1 whole entry): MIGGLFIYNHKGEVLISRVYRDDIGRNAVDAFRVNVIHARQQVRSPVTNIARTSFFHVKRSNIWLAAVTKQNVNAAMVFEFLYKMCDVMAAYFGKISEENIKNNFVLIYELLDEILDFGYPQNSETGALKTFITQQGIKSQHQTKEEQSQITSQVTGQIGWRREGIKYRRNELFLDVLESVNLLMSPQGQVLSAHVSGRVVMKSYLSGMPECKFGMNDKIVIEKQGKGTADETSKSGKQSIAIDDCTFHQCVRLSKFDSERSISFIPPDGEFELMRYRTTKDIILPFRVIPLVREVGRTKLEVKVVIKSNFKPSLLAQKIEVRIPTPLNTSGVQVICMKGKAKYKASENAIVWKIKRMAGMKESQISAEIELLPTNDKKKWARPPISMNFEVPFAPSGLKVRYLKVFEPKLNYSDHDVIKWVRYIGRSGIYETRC

Y375C was tested. Which “effect of a mutation on the interaction” value did it give?
Its value is “with no effect”.

Variants of: B4
Details: with rxrg_human RXRG

V83I was tested. Which “effect of a mutation on the interaction” value did it give?
Its value is “with no effect”.

Variants of: B5
Details: with sgsm1_human SGSM1, Q2NKQ1

Which “effect of a mutation on the interaction” value does the source give for M72T here?
The value was “with no effect”.
